Experimental data published in US7250269B2, “Composition for assaying glycoprotein” (Asahi Kasei Pharma Corporation, priority 2001, dated 2007).

Tests used:
Format in all cases: biochemical
[1] = target: T1, HSA substrate solution; Albumin Human (Homo sapiens, UniProt P02768); experiment: Activity of various proteases on HSA substrate solution (released glycated amino acids/peptides assayed with R-FOD); conditions: pH 8.0; 37° C. for 30 minutes
T1 construct: purchased Sigma-Aldrich Co
Description: (§1) • 1. […] GA % was assayed using a glycated albumin analyzer (GAA-2000, manufactured by ARKRAY, Inc.). • 2. G-II and III substrate solutions, FRA value=48 μmol/L [Globulins Human Cohn Fraction II and III; 16.9 mg/ml (manufactured by Sigma-Aldrich Co.)] • 3. G-IV substrate solution, FRA value=26 μmol/L [Globulins Human Cohn Fraction IV; 6 mg/ml (manufactured by Sigma-Aldrich Co.)] • 4. G-I substrate solution, FRA value=77 μmol/L [Glovenin I: immunoglobulin preparation (manufactured by Takeda Chemical Industries, Ltd.)] • 5. Hb substrate solution: Hemoglobin Human; 55 mg/ml, glycated hemoglobin rate: HbA1c=4.5% [manufactured by Sigma-Aldrich Co., the HbA1c value was determined using a glycated hemoglobin analyzer (Hi-Auto A1C HA-8150, manufactured by ARKRAY, Inc.)].
(§2) 200 μl of a substrate solution other than Hb, 40 μl of 100 mg/ml protease solution (a solution with a concentration as close to 100 mg/ml as possible if a 100 mg/ml solution cannot be prepared, or as is if the protease solution is liquid), and 10 μl of 1 M Tris buffer solution (pH 8) were thoroughly mixed and reacted at 37° C. for 30 minutes. The reaction solution was filtered through 10,000 NMWL membrane (Ultrafree MC, manufactured by Millipore Corp.) The filtrate was served as the protease reaction sample. The same procedure was conducted using distilled water instead of the substrate to prepare a blank sample.
(§3) 300 μl of the above reaction solution for assaying glycated amino acids was added to a cell and incubated for three minutes at 37° C. […] 30 μl of the protease reaction sample was then added to the cell and incubated for five minutes at 37° C. […] The same procedure was conducted using the blank sample instead of the protease reaction sample. Absorbances (A0 blank and A1 blank) were measured. The reaction of protease with glycated proteins is indicated by the following absorbance change. ΔA=(A1−A0)−(A1 blank−A0 blank)

[2] = tested on: G-I substrate solution (Glovenin I: immunoglobulin preparation); experiment: Activity of various proteases on G-I substrate solution (R-FOD assay); conditions: pH 8.0, 37° C. for 30 minutes
Description: as §1, §2, §3

[3] = target: T2, Hb substrate solution: Hemoglobin Human (Homo sapiens, UniProt P68871+P69905); experiment: Activity of various proteases on Hb substrate solution (R-FOD assay); conditions: pH 8.0; 37° C. for 60 minutes
T2 construct: purchased Sigma-Aldrich Co
Description: as §1
For the Hb substrate solution, 150 μl of the substrate solution, 60 μl of 200 mg/ml protease solution (a solution with a concentration as close to 200 mg/ml as possible if a 200 mg/ml solution cannot be prepared, or as is if the protease solution is liquid), and 5 μl of 1 M Tris buffer solution (pH 8) were thoroughly mixed and reacted at 37° C. for 60 minutes. The reaction solution was filtered through 10,000 NMWL membrane (Ultrafree MC, manufactured by Millipore Corp.). The filtrate was served as the protease reaction sample. The same procedure was conducted using distilled water instead of the substrate to prepare a blank sample.
as §3

[4] = FOD enzyme activity / substrate specificity on glycated lysine; conditions: glycated lysine / glycated valine
Description: 164 strains of mutant colonies obtained in Example 15 were cultured for 16 hours at 30° C. in 1.5 ml of a 3.7% BHI liquid medium (manufactured by DIFCO Co.) containing 50 μg/ml of ampicillin and 1 mM of IPTG. 1 ml of the culture broth was centrifuged (15,000 G for one minute at 4° C.) to collect cells. 200 μl of 10 mM Tris-HCl buffer solution (pH 8.0) was added to the collected cells. After crushing the cells using an ultrasonic breaker, the mixture was centrifuged (14,000 G for five minutes at 4° C.) to obtain a cell extract as a supernatant.
The glycated amino acid substrate specificity of FOD-mutated recombinant contained in the cell extract prepared in Example 16 was measured using the above-mentioned FOD enzyme activity measuring method.
Synthesis of an oligonucleotide having the base sequence of 1-27 in the sequence table Sequence ID No. 7 was consigned to an outside source (BEX Co., Ltd.). The oligonucleotide was subjected to the site-directed mutagenesis using the Mutan-K kit (manufactured by Takara Shuzo Co., Ltd.) according to the manual attached to the kit. The mutant gene obtained was incorporated again into the expression plasmid pTV119N, introduced into Escherichia coli host, and cultured at 30° C. for 16 hours in a 3.7% BHI liquid medium containing 50 μg/ml of ampicillin and 1 mM of IPTG to produce mutant FOD protein.

T2 sequence (P69905 2-142 limits assumed): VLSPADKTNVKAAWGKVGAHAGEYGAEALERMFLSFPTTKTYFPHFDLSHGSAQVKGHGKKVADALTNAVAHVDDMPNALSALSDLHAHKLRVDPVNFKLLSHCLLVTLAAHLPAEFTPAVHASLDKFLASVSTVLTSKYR
T2 sequence (P68871 2-147 limits assumed): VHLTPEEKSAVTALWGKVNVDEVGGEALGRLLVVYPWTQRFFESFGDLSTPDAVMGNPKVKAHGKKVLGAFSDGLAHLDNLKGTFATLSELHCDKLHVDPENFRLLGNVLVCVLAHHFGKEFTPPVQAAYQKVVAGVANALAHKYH

Row | Molecule | ΔA HSA [1] | ΔA Gl [2] | ΔA Hb [3] | Reactivity ratio, glycated lysine / glycated valine [4]
1 | Alcalase: protease, origin Bacillus (protein, UniProt P00780 106-379, looked up) Subtilisin Carlsberg: AQTVPYGIPLIKADKVQAQGFKGANVKVAVLDTGIQASHPDLNVVGGASFVAGEAYNTDGNGHGTHVAGTVAALDNTTGVLGVAPSVSLYAVKVLNSSGSGSYSGIVSGIEWATTNGMDVINMSLGGASGSTAMKQAVDNAYAKGVVVVAAAGNSGSSGNTNTIGYPAKYDSVIAVGAVDSNSNRASFSSVGAELEVMAPGAGVYSTYPTNTYATLNGTSMASPHVAGAAALILSKHPNLSASQVRNRLSSTATYLGSSFYYGKGLINVEAAAQ | 92 mAbs | 49 mAbs | 17 mAbs | 
2 | Proteinase K: protease, origin Tritirachium (protein, UniProt P06873 106-384, looked up) Proteinase K: AAQTNAPWGLARISSTSPGTSTYYYDESAGQGSCVYVIDTGIEASHPEFEGRAQMVKTYYYSSRDGNGHGTHCAGTVGSRTYGVAKKTQLFGVKVLDDNGSGQYSTIIAGMDFVASDKNNRNCPKGVVASLSLGGGYSSSVNSAAARLQSSGVMVAVAAGNNNADARNYSPASEPSVCTVGASDRYDRRSSFSNYGSVLDIFGPGTSILSTWIGGSTRSISGTSMATPHVAGLAAYLMTLGKTTAASACRYIADTANKGDLSNIPFGTVNLLAYNNYQA | 79 mAbs | 45 mAbs | 32 mAbs | 
3 | Carboxypeptidase Y: protease, origin Yeast (protein, UniProt P00729 112-532, looked up) Carboxypeptidase Y: KIKDPKILGIDPNVTQYTGYLDVEDEDKHFFFWTFESRNDPAKDPVILWLNGGPGCSSLTGLFFELGPSSIGPDLKPIGNPYSWNSNATVIFLDQPVNVGFSYSGSSGVSNTVAAGKDVYNFLELFFDQFPEYVNKGQDFHIAGESYAGHYIPVFASEILSHKDRNFNLTSVLIGNGLTDPLTQYNYYEPMACGEGGEPSVLPSEECSAMEDSLERCLGLIESCYDSQSVWSCVPATIYCNNAQLAPYQRTGRNVYDIRKDCEGGNLCYPTLQDIDDYLNQDYVKEAVGAEVDHYESCNFDINRNFLFAGDWMKPYHTAVTDLLNQDLPILVYAGDKDFICNWLGNKAWTDVLPWKYDEEFASQKVRNWTASITDEVAGEVKSYKHFTYLRVFNGGHMVPFDVPENALSMVNEWIHGGFSL | 2 mAbs | 14 mAbs | 4 mAbs | 
4 | Reactive 327th amino acid Valine: mutant obtained by replacing the lysine with valine, named FOD-V; plasmid pcmFOD5; Sequence ID No. 4 (protein, sequence derived from Fusarium oxysporum IFO- 9722) ASTLTKQSQILIVGGGTWGCSTALHLARRGYTNVTVLDVNRIPSPISAGHDVNKLAGRLSTADSKGDDEDSIWKALSYAAAQGWLHDPVFQPFCHNTGSVVAGSTPKSIKQLVEDEIGDDIDQYTPLNTAEDFRKTMPEGILTGNFPGWKGFYKPTGSGWVHARKAMKAAFEESERLGVKFITGSPEGKVESLIFEDGDVRGAKTADGKEHRADRTILSAGASAEFFLDFENQIQPTAWTLGHIQMTPEETKLYKNLPPLFNINQGFFMEPDEDLHQLKMCDEHPGYCNWVEKPGSKYPQSIPFAKHQVPTEAERRMKQFLKDIMPQLADRPLVHARICWCADTQDRMFLITYHPRHPSLVIASGDCGTGYVHITSIGKFISDCMEGTLEERFAKFWRWRPEKFTEFWGKDPLDRFGADDKIMDLPKSDVEGWTNIKNDI |  |  |  | 1930
5 | Reactive 327th amino acid Lysine (wild type): wild type fructosyl amino acid oxidase (FOD) originating from Fusarium oxysporm IFO-9972, Sequence ID No. 1 (protein) ASTLTKQSQILIVGGGTWGCSTALHLARRGYTNVTVLDVNRIPSPISAGHDVNKLAGRLSTADSKGDDEDSIWKALSYAAAQGWLHDPVFQPFCHNTGSVVAGSTPKSIKQLVEDEIGDDIDQYTPLNTAEDFRKTMPEGILTGNFPGWKGFYKPTGSGWVHARKAMKAAFEESERLGVKFITGSPEGKVESLIFEDGDVRGAKTADGKEHRADRTILSAGASAEFFLDFENQIQPTAWTLGHIQMTPEETKLYKNLPPLFNINQGFFMEPDEDLHQLKMCDEHPGYCNWVEKPGSKYPQSIPFAKHQVPTEAERRMKQFLKDIMPQLADRPLVHARICWCADTQDRMFLITYHPRHPSLVIASGDCGTGYKHITSIGKFISDCMEGTLEERFAKFWRWRPEKFTEFWGKDPLDRFGADDKIMDLPKSDVEGWTNIKNDI |  |  |  | 9.5
6 | Trypsin: protease, origin Cow pancreas (protein, UniProt P00760 24-246, looked up) Serine protease 1: IVGGYTCGANTVPYQVSLNSGYHFCGGSLINSQWVVSAAHCYKSGIQVRLGEDNINVVEGNEQFISASKSIVHPSYNSNTLNNDIMLIKLKSAASLNSRVASISLPTSCASAGTQCLISGWGNTKSSGTSYPDVLKCLKAPILSDSSCKSAYPGQITSNMFCAGYLEGGKDSCQGDSGGPVVCSGKLQGIVSWGSGCAQKNKPGVYTKVCNYVSWIKQTIASN | 11 mAbs | 15 mAbs | <1 mAbs | 
7 | Carboxypeptidase A: protease, origin Cow pancreas (protein, UniProt P00730 111-419, looked up) Carboxypeptidase A1: ARSTNTFNYATYHTLDEIYDFMDLLVAEHPQLVSKLQIGRSYEGRPIYVLKFSTGGSNRPAIWIDLGIHSREWITQATGVWFAKKFTEDYGQDPSFTAILDSMDIFLEIVTNPDGFAFTHSQNRLWRKTRSVTSSSLCVGVDANRNWDAGFGKAGASSSPCSETYHGKYANSEVEVKSIVDFVKDHGNFKAFLSIHSYSQLLLYPYGYTTQSIPDKTELNQVAKSAVEALKSLYGTSYKYGSIITTIYQASGGSIDWSYNQGIKYSFTFELRDTGRYGFLLPASQIIPTAQETWLGVLTIMEHTLNNLY | <1 mAbs | 50 mAbs | 13 mAbs | 
8 | Papain: protease, origin Papaya (protein, UniProt P00784 134-345, looked up) Papain: IPEYVDWRQKGAVTPVKNQGSCGSCWAFSAVVTIEGIIKIRTGNLNEYSEQELLDCDRRSYGCNGGYPWSALQLVAQYGIHYRNTYPYEGVQRYCRSREKGPYAAKTDGVRQVQPYNEGALLYSIANQPVSVVLEAAGKDFQLYRGGIFVGPCGNKVDHAVAAVGYGPNYILIKNSWGTGWGENGYIRIKRGTGNSYGVCGLYTSSFYPVKN | 15 mAbs | 5 mAbs | <1 mAbs | 
